Consider one molecule from article PMC4980704.

This data set addresses VEGF165 (human, UniProt P15692-4 27-191). Nature of the data set: MST.

For TGTGGGGGTGGACGGGCCGGGTAGA (structured_DNA) [V7t1 (3'-Cy3)], binding was put at a Kd of 75.9 ± 13 nM.
